Laboratory results reported in PMC6641210 (2019).
Where “and” joins values, the source holds several entries; their conditions need not be identical. Equal values may be shown once. Read-outs that look alike come from different tables or passages of the source. Each block holds one molecule with its values, some of them ahead of it.

Assays:
[1] = target: ADCC-enhanced human IgG1 25G1 with S239D/I332E (human); assay: SPR
[2] = target: rabbit chimera of human IgG1 25G1 (human 25G1 variable regions on rabbit IgG heavy chain and rabbit kappa K2 light chain constant regions) (rabbit (Oryctolagus cuniculus)); assay: SPR; antibody (5.3 nM) captured by its kappa light chain on a Protein L sensor chip, FcγRIIIA ECD injected as analyte; Biacore X100, 25°C, HBS-EP+ (0.01 M HEPES pH 7.4, 0.15 M NaCl, 3 mM EDTA, 0.05% P20); five-point titration in triplicate, 1:1 Langmuir binding model (kinetic)
[3] = target: ADCC-enhanced human IgG1 25G1 with S239D/I332E (human); assay: SPR; Biacore X100, 25°C, HBS-EP+ (0.01 M HEPES pH 7.4, 0.15 M NaCl, 3 mM EDTA, 0.05% P20); antibody (5.3 nM) captured by its kappa light chain on a Protein L Sensor Chip, FcγRIIIA ECD injected 30 s at 30 µl/min; five-point titration in triplicate; kinetic fit, 1:1 Langmuir binding model
[4] = target: ADCC-enhanced human IgG1 25G1 with S239D/I332E (human); assay: SPR; Biacore X100, 25°C, HBS-EP+; antibody captured on a Protein L Sensor Chip, five-point titration of FcγRIIIA ECD in triplicate; steady-state affinity model
[5] = target: chimeric rabbit IgG: variable regions of human 25G1 on rabbit IgG heavy and rabbit kappa (K2) light chain constant regions (human | rabbit (Oryctolagus cuniculus)); assay: SPR; Biacore X100, 25°C, HBS-EP+ (0.01 M HEPES pH 7.4, 0.15 M NaCl, 3 mM EDTA, 0.05% P20); antibody (5.3 nM) captured by its kappa light chain on a Protein L Sensor Chip, FcγRIIIA ECD injected 30 s at 30 µl/min; five-point titration in triplicate; kinetic fit, 1:1 Langmuir binding model
[6] = target: chimeric rabbit IgG: variable regions of human 25G1 on rabbit IgG heavy and rabbit kappa (K2) light chain constant regions (human | rabbit (Oryctolagus cuniculus)); assay: SPR; Biacore X100, 25°C, HBS-EP+; antibody captured on a Protein L Sensor Chip, five-point titration of FcγRIIIA ECD in triplicate; steady-state affinity model
[7] = target: human IgG1 antibody with a kappa light chain (human anti-Tissue Factor antibody 25G1) (human); assay: SPR; antibody (5.3 nM) captured by its kappa light chain on a Protein L sensor chip, FcγRIIIA ECD injected as analyte; Biacore X100, 25°C, HBS-EP+ (0.01 M HEPES pH 7.4, 0.15 M NaCl, 3 mM EDTA, 0.05% P20); five-point titration in triplicate, 1:1 Langmuir binding model (kinetic)
[8] = target: ADCC-enhanced human IgG1 (25G1) with the S239D/I332E mutations (human); assay: as above
[9] = target: pig chimera of human IgG1 25G1 (human 25G1 variable regions on pig IgG1 heavy chain and pig kappa light chain constant regions) (pig (Sus scrofa)); assay: as above
[10] = target: human IgG1 anti-Tissue Factor antibody 25G1 with a kappa light chain (human); assay: SPR; Biacore X100, 25°C, HBS-EP+ (0.01 M HEPES pH 7.4, 0.15 M NaCl, 3 mM EDTA, 0.05% P20); antibody (5.3 nM) captured by its kappa light chain on a Protein L Sensor Chip, FcγRIIIA ECD injected 30 s at 30 µl/min; five-point titration in triplicate; kinetic fit, 1:1 Langmuir binding model
[11] = target: chimeric pig IgG1: variable regions of human 25G1 on pig IgG1 heavy and pig kappa light chain constant regions (human | pig (Sus scrofa)); assay: as above
[12] = target: ADCC-enhanced human IgG1 25G1 with S239D/I332E (human); assay: SPR; remark: listed apart in the source
[13] = target: human IgG1 anti-Tissue Factor antibody 25G1 with a kappa light chain (human); assay: SPR; Biacore X100, 25°C, HBS-EP+; antibody captured on a Protein L Sensor Chip, five-point titration of FcγRIIIA ECD in triplicate; steady-state affinity model
[14] = target: chimeric pig IgG1: variable regions of human 25G1 on pig IgG1 heavy and pig kappa light chain constant regions (human | pig (Sus scrofa)); assay: as above
[15] = target: T1, rabbit FcγRIIIA extracellular domain fragment (rabbit (Oryctolagus cuniculus)); assay: SPR
T1 chain: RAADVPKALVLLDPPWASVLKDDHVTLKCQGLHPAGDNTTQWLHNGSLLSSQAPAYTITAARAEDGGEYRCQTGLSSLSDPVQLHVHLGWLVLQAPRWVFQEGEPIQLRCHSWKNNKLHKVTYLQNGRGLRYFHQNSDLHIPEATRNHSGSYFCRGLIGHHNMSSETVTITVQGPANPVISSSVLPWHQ

[16] = target: T2, pig FcγRIIIA extracellular domain fragment (pig, UniProt Q28942 20-209); assay: SPR
T2 chain: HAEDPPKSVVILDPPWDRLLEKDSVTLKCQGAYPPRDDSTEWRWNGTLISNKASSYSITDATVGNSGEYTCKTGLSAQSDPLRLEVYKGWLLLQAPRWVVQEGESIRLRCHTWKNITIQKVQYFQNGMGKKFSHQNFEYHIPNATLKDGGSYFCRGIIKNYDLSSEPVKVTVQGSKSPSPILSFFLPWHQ

[17] = target: T3, human IgG1 anti-Tissue Factor antibody 25G1 with a kappa light chain (human); assay: SPR; Biacore X100, 25°C, HBS-EP+ (0.01 M HEPES pH 7.4, 0.15 M NaCl, 3 mM EDTA, 0.05% P20); antibody (5.3 nM) captured by its kappa light chain on a Protein L Sensor Chip, FcγRIIIA ECD injected 30 s at 30 µl/min; five-point titration in triplicate; kinetic fit, 1:1 Langmuir binding model; remark: listed apart in the source
[18] = target: T4, chimeric rabbit IgG: variable regions of human 25G1 on rabbit IgG heavy and rabbit kappa (K2) light chain constant regions (human | rabbit (Oryctolagus cuniculus)); assay: as above; remark: listed apart in the source
[19] = target: T3, human IgG1 anti-Tissue Factor antibody …; assay: SPR; Biacore X100, 25°C, HBS-EP+; antibody captured on a Protein L Sensor Chip, five-point titration of FcγRIIIA ECD in triplicate; steady-state affinity model; remark: listed apart in the source
[20] = target: T4, chimeric rabbit IgG: variable regions …; assay: as above; remark: listed apart in the source
[21] = target: biotinylated rabbit IgG (Jackson 011-060-003) (rabbit); assay: SPR; biotinylated rabbit IgG immobilised on a streptavidin Sensor Chip SA, titration of rabbit FcγRIIIA as analyte; steady-state affinity analysis, average of a triplicate
[22] = target: ADCC-enhanced human IgG1 (25G1) with the S239D/I332E mutations (human); assay: SPR; antibody (5.3 nM) captured by its kappa light chain on a Protein L sensor chip, FcγRIIIA ECD injected as analyte; Biacore X100, 25°C, HBS-EP+ (0.01 M HEPES pH 7.4, 0.15 M NaCl, 3 mM EDTA, 0.05% P20); five-point titration in triplicate, 1:1 Langmuir binding model (kinetic); remark: listed apart in the source
[23] = target: rabbit chimera of human IgG1 25G1 (human 25G1 variable regions on rabbit IgG heavy chain and rabbit kappa K2 light chain constant regions) (rabbit (Oryctolagus cuniculus)); assay: as above; remark: listed apart in the source
[24] = target: human IgG1 antibody with a kappa light chain (human anti-Tissue Factor antibody 25G1) (human); assay: as above; remark: listed apart in the source

Kd [3]: 148 nM
koff [3]: 0.27 s⁻¹
kon [3]: 1.8e+06 M⁻¹ s⁻¹
Kd [4]: 133 nM
Molecule: rabbit FcγRIIIA extracellular domain fragment (receptor)

Kd [15]: 2170 nM and 2710 nM
Kd [16]: 8060 nM and 14700 nM
B2: human IgG1 antibody with a kappa light chain (human anti-Tissue Factor antibody 25G1) (antibody)
chain 1: QVQLVQSGAEVKKPGASVKVSCKASGYTFRSYGISWVRQAPGQGLEWMGWVAPYSGNTNYAQKLQGRVTMTTDTSTSTAYMELRSLRSDDTAVYYCARDAGTYSPYGYGMDVWGQGTTVTVSS
chain 2: DIQMTQSPSTLSASVGDRVTITCRASHSIDSWLAWYQQKPGKAPKLLIYKASYLESGVPSRFSGSGSGTEFTLTISSLQPDDFATYYCQLFQSLPPFTFGGGTKVEIK

Continued, molecule first:

Molecule: human FcγRIIIA-V158 (high affinity allele) extracellular domain fragment (receptor)
Kd [1]: 1.18 nM
koff [1]: 0.01 s⁻¹
kon [1]: 1.01e+07 M⁻¹ s⁻¹

Molecule: human FcγRIIIA extracellular domain fragment, low affinity F158 variant (from UniProt P08637 17-208) (receptor)
difference of kinetic KD between hIgG1 and rIgG [2]: 24%

Molecule: human FcγRIIIA-F158 (low affinity allele) extracellular domain fragment (receptor)
Kd [5]: 773 nM
koff [5]: 0.14 s⁻¹
kon [5]: 186000 M⁻¹ s⁻¹
Kd [3]: 4.6 nM
koff [3]: 0.05 s⁻¹
kon [3]: 1.16e+07 M⁻¹ s⁻¹
Kd [6]: 792 nM

B1: pig FcγRIIIA extracellular domain fragment (receptor)
chain: T2 chain
fold reduction of affinity relative to hFcγRIIIA [7]: 13 fold
fold deterioration of kd relative to hIgG1 [8]: 7 fold
fold improvement of KD relative to hIgG1 [8]: > 10 fold
difference of kinetic KD between hIgG1 and rIgG [2]: 30%
Kd [9]: 4730 nM
Kd [10]: 8060 nM
koff [10]: 0.05 s⁻¹
kon [10]: 5920 M⁻¹ s⁻¹
Kd [5]: 10900 nM
koff [5]: 0.08 s⁻¹
kon [5]: 7110 M⁻¹ s⁻¹
Kd [3]: 726 nM
koff [3]: 0.35 s⁻¹
kon [3]: 480000 M⁻¹ s⁻¹
koff [11]: 0.28 s⁻¹
kon [11]: 59700 M⁻¹ s⁻¹
Kd [12]: 638 nM
Kd [13]: 14700 nM
Kd [6]: 13200 nM
Kd [14]: 3970 nM

B3: rabbit FcγRIIIA extracellular domain fragment (receptor)
chain: T1 chain
modifications: not checked
Kd [17]: 2710 nM
koff [17]: 0.33 s⁻¹
kon [17]: 122000 M⁻¹ s⁻¹
koff [18]: 0.34 s⁻¹
kon [18]: 140000 M⁻¹ s⁻¹
Kd [19]: 2170 nM
Kd [20]: 1990 nM
Kd [21]: 1320 nM
fold improvement of KD relative to hIgG1 [22]: > 10 fold
Kd [23]: 2450 nM
difference of kinetic KD between hIgG1 and rIgG [23]: 10%
fold reduction of affinity relative to hFcγRIIIA [24]: 4 fold
